Data published in the DeepSol protein solubility set.

assay: soluble on expression in E. coli; label from the status in PepcDB or PDB records

Row | Sequence | soluble on expression in E. coli
1 | MSATNLAVEQLQRVLLPRRGEPADVRSLYLLEAESNKERLEWEDRFSVSVPAGAEVSFQTYFNAFPASYWRRWSQLDSVVLKLKVSGEARVDLYRSKIDGARIGITGSVVKDDFIEFEVSLAPFEDGGWIWFDLTAETDATVEEAGWYAPHAPKAQIMPDGSEVGPFEARATVGIPTFNRPADAVAALEALASDPAVDAVIDTVIMPDQGNKHPADEPGYKAAVEHFGDRFFEFRQGNLGGSGGYSRIMFEALGGVDGKGEAGAAKSPYILYMDDDIAIEPDSVLRALQVARYAKSPILVGGQMLNLQERSHLHTMGEVVGGHDFMWTAAPHVHYDHDFSAHPLHDRGKFDDKPDAPNSRDLHRRIDVDFNGWWMCMIPRVVAEQIGQPLPLFIKWDDAEYGLRARKAGFPTATWPGIAIWHMAWSDKDDAIDWQAYFHLRNRLVVAAMYHQGSVDGIVRSMQKATFKHLLCLEYSTVAIQNEAMKDFLAGPDQLFSILDTSLPRIAAIRKTYPDAVVLPSATELPRATGAPGVPTKDIGGRLAPIKKAMWLAKGLKHSLSKEDASHHEVPQANFAPIEARWFSLSRVDGATVTTADGRGVVYRKRDRDKAKELGKEARALQKQVAERFDELSRAYRNAHPELVSREAWGKVFDEQ | not soluble
2 | MSATTKELGNSLWDSLFGTPGVQLTDDDIQNMPYASQYMQLNGGPQLFVVLAFAEDGQQKWVTQDQATLVTQHGRLVKTLLGGDNLIEVNNLAADPLIKPAQIVDGASWTRTMGWTEYQQVRYATARSVFKWDGTDTVKVGSDETPVRVLDEEVSTDQARWHNRYWIDSEGQIRQSEQYLGADYFPVKTTLIKAAKQLEHHHHHH | soluble
3 | MSAVLTAEDTLVLASTATPVEMELIMGWLGQQRARHPDSKFDILKLPPRNAPPAALTALVEQLEPGFASSPQSGEDRSIVPVRVIWLPPADRSRAGKVAALLPGRDPYHPSQRQQRRILRTDPRRARVVAGESAKVSELRQQWRDTTVAEHKRDFAQFVSRRALLALARAEYRILGPQYKSPRLVKPEMLASARFRAGLDRIPGATVEDAGKMLDELSTGWSQVSVDLVSVLGRLASRGFDPEFDYDEYQVAAMRAALEAHPAVLLFSHRSYIDGVVVPVAMQDNRLPPVHMFGGINLSFGLMGPLMRRSGMIFIRRNIGNDPLYKYVLKEYVGYVVEKRFNLSWSIEGTRSRTGKMLPPKLGLMSYVADAYLDGRSDDILLQGVSICFDQLHEITEYAAYARGAEKTPEGLRWLYNFIKAQGERNFGKIYVRFPEAVSMRQYLGAPHGELTQDPAAKRLALQKMSFEVAWRILQATPVTATGLVSALLLTTRGTALTLDQLHHTLQDSLDYLERKQSPVSTSALRLRSREGVRAAADALSNGHPVTRVDSGREPVWYIAPDDEHAAAFYRSSVIHAFLETSIVELALAHAKHAEGDRVAAFWAQAMRLRDLLKFDFYFADSTAFRANIAQEMAWHQDWEDHLGVGGNEIDAMLYAKRPLMSDAMLRVFFEAYEIVADVLRDAPPDIGPEELTELALGLGRQFVAQGRVRSSEPVSTLLFATARQVAVDQELIAPAADLAERRVAFRRELRNILRDFDYVEQIARNQFVAREFKARQGRDRILEHHHHHH | not soluble
4 | MSCPYIDEDKIVGNVEMELKKGGTFDKLRKQAIEHVKDSKLVHRIENEMLVKVDEIIASSANLTQEEIQRKMKDFMNENAKMRNDINRQIRVEFEKEWVHDELDKEIDEKVNKQLENSI | not soluble
5 | MSDALTLTAAKKNARNRIRAARLARSTADLHADNAAILNQLTALIRTINATRAAAYMPEVTEPGGVDFADNLTGILSELWIPKSLPNRQLVWGHYSGGDSVERGTFGILEPTTPSRSSDILHDVDLIIVPALGITPSGRRLGQGAGYYDRALAGVATPTVAILFDSEVNTTIPFEPHDATCDWIITPEGTKQVT | not soluble
6 | MSDATNNAVLVRNLSPEVTKQTLLDFFSFCGEISAVKIRPSVGEGGSSSSGSPTEAMEALVIFENQSAKKTALVLDSATLKKRKISVMDATEELVSSFKDVREVDLARDSTDVPETATARQERLQGLREEFDRAIKRASDKLSDFNEKHRITEKVQEFGDLTKRKTQEINEQYRLTERAREGWQTVREKTRELDERLHLSESARDGWRSLKASVSKIMQKDRGGEVDKA | soluble
7 | MSDATYADAVIMEMNGRDIEIVSIKPQTTTGRKPVKTMNRNGRVNGYCDGVTEHKLSVTAAIPIDGTEIDWDNITKAKITIYPINDEDRRTSYLDCFTVDTGEQYEVDNEARIDIEMIALHKIKE | not soluble
8 | MSDDKKSLINIELLPKELITNLFGPATKSIGEGLGGIVNYVVGPLRKLNVVSEKSYIDFVEKINSKTDSIPVDNRDDSKLGFALKTMEDARYQLEDEDMREYFSNLLAGLVDNRKNQDSSPRFSIILSELTTIDANLLKKLYKLSITPTIKVRVQAPNGNGIDYIENLILTQKGIVENNFSDLSPSLQTLRSYGLIDIRPSIELTQKKHTKIYDDFENSTYFKTLKYNLNSFFANSSFFKDTGFSIISIRGSIHVTDLGFLFCSKIFSSEEE | not soluble
9 | MSDDPNTTQERAMEGPSENQAARQLEGNQEEAQRQPKEEQADREEAKGEEEAPQVAAALPIPDSPFLTELARLLRGSLRPYLNTEPDEVIEAARQDHQLDQEVANENLLQYICRTLVESNDMGKLAEIRELFARTPEDPAFNTPAGIDDSAMNQFYELIRDCRVVPEDDQTFVPRQALATRIHLIIDSFQARRESEFLRQWCQQNIVCLLYGNPVPEMKDFAYRILIEMLTSSSTWTAELESFANELSRKRGTFINDYWATIRDQNEAGDLDPKRTLFADFRDQHSVFGNVQFDIFRERLAQLEKLWHSQMRMFDVPDKVLCVTGIVTDTMTEMLMGVKDGKPNITPFLKKARIFYRLSDGAETSEAPAEASARASEAPEAPALPPKRSRGIKRKLSEYAEELFESKKPKSDELPTAEQWMYFLQHCLQGPEQDEQRGGNQ | not soluble
10 | MSDEWEQLTVELRKIPRGTEAAPQYLRHLMKMFVADFETAVSKRFDVKFWNKLKSMMDEITKAMENDRLVNHNVQNLAIGFLTDLSLLVHYHYEIPNYGNDISKQLTWTPDVFLNRKPIKSKKNSRVFMAYVLLRMGDLMRYKENYPKAQEYYEQSCRINPADGAVWNQLGLISSLGAKNLESVYFHTRALHATMEFPTASGGLTNIFKNFANRDISRPMPIKDLYLSCLGRIHFLLEIEDSSVHLQKIGEEAATSKEMIVPLMSVYKHLEDGTELEQRAVEYVKTIWCTAYRSLLKTLDDYKEESKKLADVPHLLHILALLLCAPKLLRGIEDQTEDEVTSICEWLLCANCDEKIKDSDAFGYFHCLQRIQYPLTRTQLAQKLVEIEDEDESKDSDQSTIPEEDQKSLSTDTSRIQNEDSEPESESESSDEEVLQRGRRRGRNPNLDESVETDEDEF | not soluble
11 | MSDGQYGPISAGIIRSITDKSYERRKAAALDVEKLVRDLFNNNQLSQLDKCLSVLGELINSGNSNQRKGGLIGMAAASIALGNKNAPPYTAKLVEPIIPCFHDADLQIRYYACESLYNIAKICKTSVLAHFEDIFDVLWRVTADSDQNVRGGAELLNRLITEIVLSEQEFDIAILMSLIRDRIYTQTSSNRRFILEWLNTIDSAPFFSFCNYISEISDGLFKMLGEQAPAVRDLCETVLGNFLTAIRSKPESLSLEDRIQMINVLVVHTHENEPFLARKLSLIWLEEFVKLYKTDLLVMLSTCLVGILPSIVETELKADAVNRLLMALVGEAKLEQDILDKTIEVLLKYIKYDVVETRVTVLNWIRHLHSSMPGQLFVHMHQIFPVLLNTLSDTSDEVLLLDLFLISNICQSESAPDQVDVSTFGLNETELKQVSHISPFLIKFVLSLLEMFRTEPTLLRERGVLIIRQLCLLLEPAHIYRVICVLLERESKHNFAQEMVSTLHGVLLTATELFILRDELRALSNESSRSLFECIFRVWSNRPIALLGLCLLSQHYQQAADIALLLSQVDITVDVLLEIDKLVNLVESPVLAYVRMDLLSSIHRPPLCTVLSALLMLLPQSEAFVTLHKRLQAVPALVSIDNSPYAPKVPPCRIDFPPLMLHFKAALARRQTEVRSRHRDLLSGVVTQMKNVKI | not soluble
12 | MSDGSMDDDGRLFPDLGSSTHDNREIRVRFLNRCAYPVDVFWLNPSKQPTKYGTLAQKKYLDIKTFKDHPWVARRSFDGCKVLVNEKEVFWPEPAPRMNLIVRNHCVITMKVQSLREIAGRSFLRHNPTEVPNKIKGLPRELQFEVKHFLDRKQEYSEIVCRSIPPPGPQRPQQ | not soluble
13 | MSDIESLGEAAGLFEEPEDFLPPPPKPHFAEYQRSHITKESKSDVKDIKLRLVGTSPLWGHLLWNAGIYTANHLDSHPELIKGKTVLELGAAAALPSVICALNGAQMVVSTDYPDPDLMQNIDYNIKSNVPEDFNNVSTEGYIWGNDYSPLLAHIEKIGNNNGKFDLIILSDLVFNHTEHHKLLQTTKDLLAEKGQALVVFSPHRPKLLEKDLEFFELAKNEFHLVPQLIEMVNWKPMFDEDEETIEVRSRVYAYYLTHEK | soluble
14 | MSDIKNITKLQIEDKGKKYSLYSLKKLSQELGKDVTRLPYSIRVLLENQLRNIDGYKVKEDDMHKVLDWDAKASSRPEIPHMPARVVMQDFTGVPAVVDLAAMRKAIKDAGGDADKINPLVDTAMVIDHSVQVDFYGTKTALAQNVAKEFERNGERYSLLKWAQKAFDDFIVVPPGMGIIHQVNLEYLAKGALVKNINGEDVIYPDTLVGTDSHTTMINGVGVVGWGVGGIEAEAVMLGQPYYMVLPDVVGVKFTGKLKTGVTATDLVLKVTEVLRKHGVVGKFVEYYGEGLESLSLPDRATIANMAPEYGATIGFFPVDEVTLDFFNNTNRSELVDAAREMYKEQLLFRENPAEEPEYSSIVEIDLSEVESNLAGPKRPQDRVAFHDMKKAFAEALVHEQGLHGFGLTDEQLQKLAEVKGLNERITHGSVAIAAITSCTNTSNPSLLLGAGLLAKKANEKGLKVKPFVKTSLAPGSQVVTQYLEKANLLPELENLGFNLVGYGCTTCIGNSGPLDEPVVEAINEADLIVASVSSGNRNFEGRINPHVKANYLASPIHVVAYALAGTVDFDPVEDAIGKDAEGNDVYLADIWPTTEEIAAIQSHVINSDMFKKAYATVLDGTEDWQKLKAPEGKLYEFDSSSTYIQCPNFFEKFAEGNDDLDIKGARTLLMLGDSVTTDHISPAGAIPEEYPAGQYLKSHGVEKKDFNSYGSRRGNHEVMMRGTFANIRIRNLLLDNVEGGFTKYHLDGSQQYVFDAAMKYKEKGIPLVILAGKEYGTGSSRDWAAKGTFLLGVKAVIAESYERIHRSNLVGMGVLPLEYVNGQNAKTLGLDGTEMFNIKNLNNIKPRQIVIVEAVHPKTAHTTTFEALARLDADVDVDYLKNGGILQTVLKDIMGDKKESKSTQSTTSKGCGSADTSSETSCPFAKIANFFKKLFK | not soluble
15 | MSDKDDLIVAGVNQKDKGIWRDFYDRYYAALCSYVEKILFLTDAVEDLVQEVFISVWEGKRTFSDSRELTNYLYRACYNNALLYIRNHQIHDSILNGLPQEEDFEDEEMLYALTVKEEAIRQLYFYIEELPAEQRRIILLRIEGHSWDEIASRLGVSINTVKTQKSRSYKFLREKLANSSYSVLLALIFY | not soluble
16 | MSDKRRYFGTDGVRGKVGQYPITPDFVLKLGWAAGRVLAKQGTRKVIIGKDTRISGYMLESALEAGLAAAGLKATFTGPMPTPAVAYLTQTFRAEAGIVISASHNPYYDNGIKFFSYEGTKLPDDIELAIEAELDKDIECVESAELGKASRMVDAAGRYIEFCKSTFPSKLSLSGLKLVVDCANGATYHIAPNVFRELGAEVIAMGVEPNGLNINDQVGATDVRALQKRVVEEHAHLGLAFDGDGDRIIMVDHLGNKVDGDQIAYIIARDALRRGELKGGVVGTLMTNLGMENGLKQLGIPFVRAAVGDRYVMEKLLEKGWKIGAENSGHVILLDKVTTGDAIVAGLQVLASVVGSEMTLHELAKGMTLYPQVLENVRFAGDNNPLEADAVKAAVSEVEAELGSKGRVLLRKSGTEPLIRVMVEGEDETLVKQSALKIAQAVKDNC | not soluble
